# Results from patent US20240383953A1, “NOVEL NAN[…] NANOG PRION-LIKE REPEATS” (BAYLOR COLLEGE OF MEDICINE, priority 2021, published 2024).
# B1: NANOG CTD: C-terminal domain construct of human NANOG, contains the WR prion-like domain (protein)
# chain: QKNNWPKNSNGVTQKASAPTYPSLYSSYHQGCLVNPTGNLPMWSNQTWNNSTWSNQTQNIQSWSNHSWNTQTWCTQSWNNQAWNSPFYNCGEESLQSCMQFQPNSPASDLEAALEAAGEGLNVIQQTTRYFSTPQTMDLFLNYSMNMQPEDV
# Experiments:
# [1] = ThT fluorescence aggregation kinetics of NANOG CTD; assay type: physicochemical, human
# [2] = Gel-like condensate formation of NANOG CTD; assay type: physicochemical, human; conditions: absence of crowding agents
molecule,measurement,setting,value
B1,ThT aggregation time constant (1/R),[1]; 1.2 μM CTD (n=9),4.8 ± 0.2 min
same,ThT aggregation time constant (1/R),[1]; 2.4 μM CTD (n=6),9.5 ± 0.1 min
same,concentration at which gel-like condensates form,[2],5 µM
